From patent publication US20160215040A1 (Regeneron, published 2016)

T1: hCNTFR.mmh (ciliary neurotrophic factor receptor.mmh) (human (printed as hCNTFR), UniProt P26992 23-342)
T1 construct: also called negative control protein; not shown: mmh (myc-myc-hexahistidine) tag
T1 sequence: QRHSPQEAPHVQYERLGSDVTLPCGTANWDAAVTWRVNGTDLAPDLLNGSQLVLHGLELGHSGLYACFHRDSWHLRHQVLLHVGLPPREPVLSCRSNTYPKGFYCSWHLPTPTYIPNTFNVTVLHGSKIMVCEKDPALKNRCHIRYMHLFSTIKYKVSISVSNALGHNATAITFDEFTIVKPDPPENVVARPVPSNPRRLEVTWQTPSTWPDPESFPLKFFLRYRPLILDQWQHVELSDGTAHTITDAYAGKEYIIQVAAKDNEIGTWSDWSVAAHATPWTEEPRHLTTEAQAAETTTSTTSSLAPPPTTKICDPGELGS

T2: Ebola virus GP, Cote d'Ivoire strain, on VLPs (Ebola virus, Cote d'Ivoire strain, UniProt Q66810 33-676)
T2 construct: also called Cote d'Ivoire FJ217162; Ivory Coast
T2 sequence: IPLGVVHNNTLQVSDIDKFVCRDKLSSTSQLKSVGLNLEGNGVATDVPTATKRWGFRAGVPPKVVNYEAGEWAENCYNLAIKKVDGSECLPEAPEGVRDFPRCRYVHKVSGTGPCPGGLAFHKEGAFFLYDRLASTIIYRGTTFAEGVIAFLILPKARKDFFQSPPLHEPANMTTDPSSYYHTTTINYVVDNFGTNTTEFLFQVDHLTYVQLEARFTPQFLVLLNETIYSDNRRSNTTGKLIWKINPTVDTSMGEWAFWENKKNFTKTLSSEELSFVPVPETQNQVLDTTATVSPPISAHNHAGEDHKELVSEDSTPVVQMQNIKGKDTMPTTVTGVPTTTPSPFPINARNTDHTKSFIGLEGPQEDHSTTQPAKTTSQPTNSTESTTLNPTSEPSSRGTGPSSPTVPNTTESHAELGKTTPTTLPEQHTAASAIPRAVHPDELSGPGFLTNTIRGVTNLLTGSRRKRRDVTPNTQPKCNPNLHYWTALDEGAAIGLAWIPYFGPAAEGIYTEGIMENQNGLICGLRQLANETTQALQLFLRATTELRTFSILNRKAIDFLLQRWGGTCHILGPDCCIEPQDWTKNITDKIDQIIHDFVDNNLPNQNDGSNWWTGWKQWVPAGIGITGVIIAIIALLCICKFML

T3: Ebola virus GP, Sudan strain, on VLPs (Ebola virus, Sudan strain, UniProt Q7T9D9 33-676)
T3 construct: also called Sudan NC_006432
T3 sequence: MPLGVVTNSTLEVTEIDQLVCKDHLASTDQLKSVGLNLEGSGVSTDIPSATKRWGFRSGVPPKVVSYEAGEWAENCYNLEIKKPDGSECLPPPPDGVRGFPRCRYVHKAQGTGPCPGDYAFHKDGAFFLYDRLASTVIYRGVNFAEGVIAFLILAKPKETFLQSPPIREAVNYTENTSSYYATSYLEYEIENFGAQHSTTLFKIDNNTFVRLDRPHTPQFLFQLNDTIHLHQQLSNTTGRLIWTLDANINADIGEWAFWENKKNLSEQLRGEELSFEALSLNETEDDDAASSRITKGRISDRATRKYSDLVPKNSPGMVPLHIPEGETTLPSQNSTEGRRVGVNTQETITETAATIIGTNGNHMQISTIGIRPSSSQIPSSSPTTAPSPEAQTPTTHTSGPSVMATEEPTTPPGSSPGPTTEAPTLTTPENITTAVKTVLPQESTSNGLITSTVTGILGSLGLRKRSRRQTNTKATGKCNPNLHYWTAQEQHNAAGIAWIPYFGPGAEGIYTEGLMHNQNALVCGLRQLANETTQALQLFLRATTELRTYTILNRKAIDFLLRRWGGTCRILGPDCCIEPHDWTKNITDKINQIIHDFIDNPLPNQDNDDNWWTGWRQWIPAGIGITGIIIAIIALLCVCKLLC


Assays:
[1] = biological target: T4, Ebola virus GP with a C-terminal polyhistidine tag (Sino Biologicals, Catalog #40442-V08B1) (Ebola virus, UniProt P87666 33-650); test: SPR 37C, mAb captured, pH chase
T4 construct: also called EbolaGP.his; Ebola virus GP.his

[2] = biological target: Ebola virus GP, Zaire 2014 strain, on VLPs (pseudoparticles) (Ebola virus, Zaire.2014 strain); test: cell-based or functional assay
[3] = biological target: T4, Ebola virus GP with a C-terminal …; test: SPR 37C, mAb captured
[4] = biological target: T4, Ebola virus GP with a C-terminal …; test: SPR 25C, mAb captured
[5] = biological target: T1, hCNTFR.mmh (ciliary neurotrophic factor …); test: BLI, mAb captured, 25C
[6] = biological target: T2, Ebola virus GP, Cote d'Ivoire strain, …; test: MSD, VLPs coated
[7] = biological target: T3, Ebola virus GP, Sudan strain, on VLPs; test: MSD, VLPs coated

Binder | t½ ratio pH 7.4/pH 5.0 [1] | t½ ratio pH 7.4/pH 6.0 [1] | Zaire 2014 VLP neutralization IC50 [2] [nM] | Kd [3] [nM] | koff [3] [s⁻¹] | kon [3] [M⁻¹ s⁻¹] | t½ [3] [min] | Kd [4] [nM] | koff [4] [s⁻¹] | kon [4] [M⁻¹ s⁻¹] | t½ [4] [min] | binding result [5] | binding result [6] | binding result [7]
H2aM17358N (antibody, V domains shown, also called HCAF12C05-14) VH: EVQLVESGGGLVQPGGSLRLSCAASGFTFSTYEMNWVRQAPGKGLEWVSYSSSSGRTIYYADSVKGRFTISRDNAKNSLFLQMNSLRAEDTAVYYCARPSSIETLLRNQYHYGVDVWGQGTTVTVSS VL: not shown | 0.4 | 0.7 | 4.68 | 52.8 | 0.000567 | 10700 | 20.4 | 623 | 0.000201 | 322 | 57.5 |  |  | 
H2aM17360N (antibody, V domains shown, also called HCAF12G09-07) VH: EVQLVESGGGLVQPGGSLRLSCAASGFTFSSYEMNWVRQAPGKGLEWVSYISSSGSTKYYADSVKGRFTISRDNAKNSLYLQMNSLRAEDTAVYYCARPSSIPALLRNQYHYGMDVWGQGTTVTVSS VL: not shown | 0.5 | 0.2 | 3.75 | 13.9 | 0.000337 | 24300 | 34.3 | 0.463 | 1.06e-05 | 23000 | 1090 |  |  | 
H1H17193P (antibody, V domains shown) VH: QVQLVESGGGVVQPGRSLRLSCAASGFTFSSYGIHWVRQAPGKWLEWVAFIWFDGSNKYYADSVKGRFTISRDDSKNTLYLQMNSLRAEDTAVYYCARDGEIFGVLISSDAFDIWGQGTMVTVSS VL: DIQMTQSPSSLSASVGDRVTITCRASRGIRNDLGWFQQKPGKAPKRLIYVASNLQSGVPSRFSGSGSGTEFTLTISSLQPEDFATYYCLQHNSYPITFGQGTRLEIK | 0.8 | 1.1 |  | 31.8 | 0.000503 | 15800 | 22.9 | 23.6 | 0.000108 | 4580 | 107 | no binding (tested: below 0.10 nm at 300 nM) | no binding | no binding
H1H17196P (antibody, V domains shown) VH: EVQLVESGGGLVQPGGSLRLSCAASGFTFRSYDMHWVRQGSGKGLEWVSAIGTAGDTYYLGSVKGRFTISRENAKNSLYLQMNSLRAGDTAVYYCARAWFGDVFLDYWGQGTLVTVSS VL: EIVMTQSPATLSVSPGERATLSCRASQSVSSNLAWYQQKPGQAPRLLIYGASTRATGIPARFSGSGSGTEFTLTISSLQSEDFAGYYCQQYNNRLTFGGGTKVEIK | 1 | 1 |  | 0.317 | ≤ 1e-05 | 31600 | ≥ 1160 | ≤ 0.391 | ≤ 1e-05 | 25600 | ≥ 1160 | no binding (tested: below 0.10 nm at 300 nM) | no binding | no binding
